Measured values taken from patent US12618835B2, “Multiplex microelectrode array for detection of proteases as biomarkers” (Kansas State University Research Foundation, priority 2021, dated 2026).
Where no end group is shown, it is not given here. [ ]: non-standard residue; d: D form. The star is where a group is joined. aminomethylferrocene = [Fe+2].c1cc[c-](CN*)c1.c1cc[cH-]c1; Ava = NCCCCC(=O)O

Biological target: cathepsin B (Homo sapiens, UniProt P07858)
Experiment: Determination of cleavage sites by HPLC-MS
Format: biochemical
Set-up: purchased R&D Systems Inc. (Minneapolis, MN)
Conditions: 50 mM MES pH 5.0, 250 mM NaCl, 0.17 μM cathepsin B, 2 h and 3 h
Excerpt: Here, the data is normalized to the value of ip0 derived from the fitting data according to eq 9. This normalization accounts for variations in I′ of the peptide-Fc substrate between each of the electrodes, and the values of ip0 and values of ip0 are listed in Table S3. […] FIG. 8b is a bar graph illustrating the differences in the measured values of 1/τ broken down by channels with H-16 (shown in blue), H-15 (shown in red) and H-3 (shown in green), similar to FIG. 8a. Here the average values of 1/τ were measured to be (8.9±1.1)×10^−4 s^−1, (6.8±1.8)×10^−4 s^−1, and (7.4±0.9)×10^−4 s^−1 for H-16, H-15 and H-3, respectively. These three peptides show similar values of 1/τ because the majority of the amino acid sequences are similar. […] For peptide H-15, all analyte solutions contained 6.5 mM peptide H-15, 50 mM MES buffer (pH 5.0) and 250 mM NaCl. Chromatograms of the peptide in the solution were then analyzed. H-15 appeared at 35.9 min in the chromatogram as verified by mass spectrometry. After incubation with cathepsin B for 2 h the cleaved fragment connected to the Fc moiety appeared at 16.0 min in the chromatogram as verified by mass spectrometry [showing a mass of 626.5 [M+23(Na)] in the mass spectrum]. A final chromatogram of peptide H-15 obtained after incubation with 5.75 ng/μL (0.17 μM) cathepsin B for 3 h confirms the cleavage site. Analyte solution for peptide H-16 was 50 mM MES (pH 5.0) and 250 mM NaCl. The hexapeptide appeared at 33.4 min in the HPLC chart and its structure was verified by mass spectrometry analysis. After treatment of hexapeptide H-16 with cathepsin B in 50 mM MES (pH 5.0) and 250 mM NaCl for 2 h the cleaved fragment appeared at 16.0 min and its structure was verified by MS analysis [showing a mass of 625.043 (M−H2+1) in the mass spectrum]. Cleavage was confirmed by incubation of 6.5 mM peptide H-16 in 50 mM MES (pH 5.0) and 250 mM NaCl incubated with 5.75 ng/μl (0.17 μM) cathepsin B for 3 h.
The cleavage sites of the hexapeptide-Fc substrates were examined using HPLC as described above. Analytical HPLC was performed with a Shimadzu SCL-10A HPLC system fitted with a proto 300 C18 reverse phase semi-prep column (10 μm, 250×10 mm). The flow rate was 1 ml/min with a gradient elution starting from 100% solvent A (water containing 0.1% TFA) to 20% solvent A and 80% solvent B (acetonitrile containing 0.1% TFA) over 50 min. The UV absorbance was monitored at 254 nm. […] The absorbance peak at ˜33.5 min was peptide H-16 and peak at 16.0 min is assigned as [Leu-Ala-Gly-Val-Ala-NH═CH-Fc]^+ (residues 2-6 of SEQ ID NO:3) (mass of 625.288). […]

## H2N-(CH2)4-CO-Pro-Leu-Ala-Gly-Val-Ala-NH-CH2-Fc ([Ava]PLAGVA-aminomethylferrocene) [Peptide H-16]
  cleavage site by cathepsin B: between Pro-Leu

## H2N-(CH2)4-CO-Pro-Leu-Arg-Phe-Gly-Ala-NH-CH2-Fc ([Ava]PLRFGA-aminomethylferrocene) [Peptide H-3]
  cleavage site by cathepsin B: between Gly-Ala and Phe-Gly residues

## H2N-(CH2)4-CO-Pro-Leu-Ala-Phe-Val-Ala-NH-CH2-Fc ([Ava]PLAFVA-aminomethylferrocene) [Peptide H-15]
  cleavage site by cathepsin B: between Leu and Ala residues
Listed as peptide-Fc
  cleavage site by cathepsin B: between Leu and Ala
